Experimental data as given in US20090062198A1.
Ends that are not written are not given here.

Target: mammalian voltage-gated Kv1.2 channel (mammalian)

Work on VSCTGSKDCYAPCRQQTGCPNAKCINKSCKCYGC (not fully specified; ends and bridges not checked) [[Q15]-MTX] yielded a potency on the channel of 0.047 nM.
